Patent US20230104578A1 (ADRENOMED, published 2023)
Read-outs that look alike come from different tables or passages of the source. Ends that are not written are not given here.

Assays:
[1] = molecular target: T1, human recombinant adrenomedullin receptor (CRLR+RAMP3) (human); test: cell-based or functional assay
[2] = molecular target: T1, human recombinant adrenomedullin …; test: cell-based or functional assay; remark: listed apart in the source

T1 sequence (Q16602 whole entry, chain 1 of 2): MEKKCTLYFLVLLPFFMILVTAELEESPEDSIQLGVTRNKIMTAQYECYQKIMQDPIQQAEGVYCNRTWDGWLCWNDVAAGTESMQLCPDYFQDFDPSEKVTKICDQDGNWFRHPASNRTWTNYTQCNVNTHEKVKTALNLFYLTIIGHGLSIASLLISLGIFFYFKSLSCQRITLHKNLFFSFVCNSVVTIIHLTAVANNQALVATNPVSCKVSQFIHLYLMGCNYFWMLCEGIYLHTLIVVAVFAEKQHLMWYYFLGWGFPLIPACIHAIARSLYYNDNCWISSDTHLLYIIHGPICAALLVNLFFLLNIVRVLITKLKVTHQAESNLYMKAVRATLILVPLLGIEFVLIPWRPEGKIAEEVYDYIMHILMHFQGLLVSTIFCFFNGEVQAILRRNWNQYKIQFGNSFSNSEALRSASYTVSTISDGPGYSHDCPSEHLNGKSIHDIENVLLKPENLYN
T1 sequence (O60896 whole entry, chain 2 of 2, further chain): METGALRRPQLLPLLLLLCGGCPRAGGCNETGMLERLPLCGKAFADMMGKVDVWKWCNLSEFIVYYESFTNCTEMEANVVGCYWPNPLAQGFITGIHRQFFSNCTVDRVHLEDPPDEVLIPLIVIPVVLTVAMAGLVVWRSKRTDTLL

Row | EC50 (read off the curve); cAMP (HTRF), % activation [1] [nM] | EC50 (read off the curve); cAMP (HTRF), % activation [2] [nM] | Binder
1 | ~1 |  | mature human Adrenomedullin (amino acids 1-52) (ends and bridges not checked) peptide: YRQSMNNFQGLRSFGCRFGTCTVQKLAHQIYQFTDKDKDNVAPRSKISPQGY-NH2
2 |  | ~0.08 | YRQSMNQGSRSNGCRFGTCTFQKLAHQIYQLTDKDKDGMAPRNKISPQGY-NH2 (ends and bridges not checked) [Murine ADM 1-50]
